{"source": "patent US20090074790", "proteins": {"B1": {"name": "purified recombinant constitutively active TβR-I kinase (protein)", "chain": "CHNRTVIHHRVPNEEDPSLDRPFISEGTTLKDLIYDMTTSGSGSGLPLLVQRTIARTIVLQESIGKGRFGEVWRGKWRGEEVAVKIFSSREERSWFREAEIYQTVMLRHENILGFIAADNKDNGTWTQLWLVSDYHEHGSLFDYLNRYTVTVEGMIKLALSTASGLAHLHMEIVGTQGKPAIAHRDLKSKNILVKKNGTCCIADLGLAVRHDSATDTIDIAPNHRVGTKRYMAPEVLDDSINMKHFESFKRADIYAMGLVFWEIARRCSIGGIHEDYQLPYYDLVPSDPSVEEMRKVVCEQKLRPNIPNRWQSCEALRVMAKIMRECWYANGAARLTALRIKKTLSQLSQQEGIKM"}}, "biological_target": "recombinant GST-Smad2 fusion protein, phosphorylated in vitro by TβR-I kinase, Q15796", "sequence (Q15796 whole entry, the tested form may be a part)": "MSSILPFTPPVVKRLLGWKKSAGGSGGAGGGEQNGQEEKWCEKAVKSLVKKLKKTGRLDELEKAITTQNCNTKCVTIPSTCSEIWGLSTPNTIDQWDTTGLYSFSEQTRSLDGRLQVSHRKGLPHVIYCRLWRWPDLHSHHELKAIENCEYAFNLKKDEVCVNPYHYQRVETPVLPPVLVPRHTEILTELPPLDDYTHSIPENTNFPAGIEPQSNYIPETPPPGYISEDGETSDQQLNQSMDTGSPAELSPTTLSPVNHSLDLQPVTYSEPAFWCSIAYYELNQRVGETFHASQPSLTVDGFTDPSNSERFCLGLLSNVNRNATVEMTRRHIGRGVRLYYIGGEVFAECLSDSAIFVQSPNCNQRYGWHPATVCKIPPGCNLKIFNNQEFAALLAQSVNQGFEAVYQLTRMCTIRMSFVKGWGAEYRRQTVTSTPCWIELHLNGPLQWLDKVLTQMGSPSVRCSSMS"}
{"protein": "B1", "values": [{"measurement": "in vitro kinase assay, density of the pSmad2 band on Western blot", "value": "a band of approximately 58 kDa, the density of which is proportional to the amount of active enzyme"}]}
